Data: publication PMC3618350 (G3: Genes|Genomes|Genetics, 2013)
Where two headings read alike, the source gives them in different places.

Legend:
Rad30 [1] = target: T1, Rad30 (S. cerevisiae, UniProt Q04049 1-632); test: two-hybrid
T1 sequence (looked up): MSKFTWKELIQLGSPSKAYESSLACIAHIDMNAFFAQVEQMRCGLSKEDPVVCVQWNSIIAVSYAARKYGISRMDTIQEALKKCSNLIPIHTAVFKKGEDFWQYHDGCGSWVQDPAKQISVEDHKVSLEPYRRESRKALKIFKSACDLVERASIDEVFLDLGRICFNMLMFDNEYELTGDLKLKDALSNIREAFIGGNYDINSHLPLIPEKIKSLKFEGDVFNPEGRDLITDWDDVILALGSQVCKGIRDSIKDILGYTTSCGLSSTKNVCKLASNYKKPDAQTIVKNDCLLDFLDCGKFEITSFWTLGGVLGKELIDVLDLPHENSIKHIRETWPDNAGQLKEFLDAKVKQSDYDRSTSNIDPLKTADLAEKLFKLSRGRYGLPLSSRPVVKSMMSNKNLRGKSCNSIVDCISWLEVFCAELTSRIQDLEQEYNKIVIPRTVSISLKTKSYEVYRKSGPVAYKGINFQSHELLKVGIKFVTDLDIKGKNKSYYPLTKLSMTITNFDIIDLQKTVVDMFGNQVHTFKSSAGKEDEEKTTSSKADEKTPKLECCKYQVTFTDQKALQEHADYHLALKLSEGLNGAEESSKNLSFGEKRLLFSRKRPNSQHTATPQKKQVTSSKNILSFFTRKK

Rad30 [2] = target: T1, Rad30; test: two-hybrid; remark: listed apart in the source

fold change in reporter activity over the highest negative control (Rad30 [1]): 3.07 fold | fold change in reporter activity over the highest negative control (Rad30 [2]): 1.47 fold
B1: Rev1 (enzyme, S. cerevisiae, UniProt P12689 1-985, looked up)
chain: MGEHGGLVDLLDSDLEYSINRETPDKNNCLSQQSVNDSHLTAKTGGLNARSFLSTLSDDSLIEYVNQLSQTNKNNSNPTAGTLRFTTKNISCDELHADLGGGEDSPIARSVIEIQESDSNGDDVKKNTVYTREAYFHEKAHGQTLQDQILKDQYKDQISSQSSKIFKNCVIYINGYTKPGRLQLHEMIVLHGGKFLHYLSSKKTVTHIVASNLPLKKRIEFANYKVVSPDWIVDSVKEARLLPWQNYSLTSKLDEQQKKLDNCKTVNSIPLPSETSLHKGSKCVGSALLPVEQQSPVNLNNLEAKRIVACDDPDFLTSYFAHSRLHHLSAWKANLKDKFLNENIHKYTKITDKDTYIIFHIDFDCFFATVAYLCRSSSFSACDFKRDPIVVCHGTKNSDIASCNYVARSYGIKNGMWVSQAEKMLPNGIKLISLPYTFEQFQLKSEAFYSTLKRLNIFNLILPISIDEAVCVRIIPDNIHNTNTLNARLCEEIRQEIFQGTNGCTVSIGCSDSLVLARLALKMAKPNGYNITFKSNLSEEFWSSFKLDDLPGVGHSTLSRLESTFDSPHSLNDLRKRYTLDALKASVGSKLGMKIHLALQGQDDEESLKILYDPKEVLQRKSLSIDINWGIRFKNITQVDLFIERGCQYLLEKLNEINKTTSQITLKLMRRCKDAPIEPPKYMGMGRCDSFSRSSRLGIPTNEFGIIATEMKSLYRTLGCPPMELRGLALQFNKLVDVGPDNNQLKLRLPFKTIVTNRAFEALPEDVKNDINNEFEKRNYKRKESGLTSNSLSSKKKGFAISRLEVNDLPSTMEEQFMNELPTQIRAEVRHDLRIQKKIQQTKLGNLQEKIKRREESLQNEKNHFMGQNSIFQPIKFQNLTRFKKICQLVKQWVAETLGDGGPHEKDVKLFVKYLIKLCDSNRVHLVLHLSNLISRELNLCAFLNQDHSGFQTWERILLNDIIPLLNRNKHTYQTVRKLDMDFEV
